Results from patent US20150011431A1 (Scripps Research, published 2015).

T1: CXCR1 (UniProt P25024 1-350, limits assumed)
T1 construct: whole, on cells; DiscoveRx cells engineered with a luminescent reporter enzyme for beta-arrestin recruitment; also called CXCR1-U2OS; U2OS-CXCR1
T1 sequence (looked up): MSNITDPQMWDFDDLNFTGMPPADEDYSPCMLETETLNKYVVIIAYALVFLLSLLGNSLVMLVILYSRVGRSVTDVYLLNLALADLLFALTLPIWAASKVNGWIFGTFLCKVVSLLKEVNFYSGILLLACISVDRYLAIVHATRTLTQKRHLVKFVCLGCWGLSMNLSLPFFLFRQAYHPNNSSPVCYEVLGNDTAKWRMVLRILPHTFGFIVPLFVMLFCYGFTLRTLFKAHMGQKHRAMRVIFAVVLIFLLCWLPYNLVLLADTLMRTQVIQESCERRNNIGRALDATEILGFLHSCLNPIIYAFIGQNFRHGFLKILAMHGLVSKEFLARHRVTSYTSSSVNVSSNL

B1: IgG with VH1-24+CDR3-IL8 (antibody)
VH: QVQLVQSGAEVKKPGASVKVSCKVSGYTLTELSMHWVRQAPGKGLEWMGGFDPEDGETIYAQKFQGRVTMTEDTSTDTAYMELSSLRSEDTAVYYCTSVHQETKKYQSPRSAKELRCQCIKTYSKPFHPKFIKELRVIESGPHCANTEIIVKLSDGRELCLDPKENWVQRVVEKFLKRAENSGSGSYTYNYEWHVDVWGQGLLVTVSSAS
light: not shown
notes: IgG; VH cloned before human IgG1 CH1-CH2-CH3 in HC pFuse; cell culture supernatant; also called VH1-24 BLVCDR3IL8
B2: IgG with VH1-46+CDR3-IL8 (antibody)
VH: QVQLVQSGAEVKKPGASVKVSCKASGYTFTSYYMHWVRQAPGQGLEWMGIINPSGGSTSYAQKFQGRVTMTRDTSTSTVYMELSSLRSEDTAVYYCTSVHQETKKYQSPRSAKELRCQCIKTYSKPFHPKFIKELRVIESGPHCANTEIIVKLSDGRELCLDPKENWVQRVVEKFLKRAENSGSGSYTYNYEWHVDVWGQGLLVTVSSAS
light: not shown
notes: IgG; VH cloned before human IgG1 CH1-CH2-CH3 in HC pFuse; cell culture supernatant; also called VH1-46 BLVCDR3IL8
B3: IgG with VH1-69+CDR3-IL8 (antibody)
VH: QVQLVQSGAEVKKPGSSVKVSCKASGGTFSSYAISWVRQAPGQGLEWMGGIIPIFGTANYAQKFQGRVTITADKSTSTAYMELSSLRSEDTAVYYCTSVHQETKKYQSPRSAKELRCQCIKTYSKPFHPKFIKELRVIESGPHCANTEIIVKLSDGRELCLDPKENWVQRVVEKFLKRAENSGSGSYTYNYEWHVDVWGQGLLVTVSSAS
light: not shown
notes: IgG; VH cloned before human IgG1 CH1-CH2-CH3 in HC pFuse; cell culture supernatant; also called VH1-69 BLVCDR3IL8
B4: IgG with VH4-4+CDR3-IL8 (antibody)
VH: QVQLQESGPGLVKPSETLSLTCTVSGGSISSYYWSWIRQPAGKGLEWIGRIYTSGSTNYNPSLKSRVTMSVDTSKNQFSLKLSSVTAADTAVYYCTSVHQETKKYQSPRSAKELRCQCIKTYSKPFHPKFIKELRVIESGPHCANTEIIVKLSDGRELCLDPKENWVQRVVEKFLKRAENSGSGSYTYNYEWHVDVWGQGLLVTVSSAS
light: not shown
notes: IgG; VH cloned before human IgG1 CH1-CH2-CH3 in HC pFuse; also called VH4-4 BLVCDR3IL8
B5: IgG with VH4-34+CDR3-IL8_CDR1 G31D, Y32K and BLV1H12 light chain (antibody)
VH: QVQLQQWGAGLLKPSETLSLTCAVYGGSFSDKYWSWIRQPPGKGLEWIGEINHSGSTNYNPSLKSRVTISVDTSKNQFSLKLSSVTAADTAVYYCTSVHQETKKYQSPRSAKELRCQCIKTYSKPFHPKFIKELRVIESGPHCANTEIIVKLSDGRELCLDPKENWVQRVVEKFLKRAENSGSGSYTYNYEWHVDVWGQGLLVTVSSAS
VL: QAVLNQPSSVSGSLGQRVSITCSGSSSNVGNGYVSWYQLIPGSAPRTLIYGDTSRASGVPDRFSGSRSGNTATLTISSLQAEDEADYFCASAEDSSSNAVFGSGTTLTVLGQPKSPPSVTLFPPSTEELNGNKATLVCLISDFYPGSVTVVWKADGSTITRNVETTRASKQSNSKYAASSYLSLTSSDWKSKGSYSCEVTHEGSTVTKTVKPSECS
notes: IgG, human IgG1 CH1-CH2-CH3; also called VH4-34 + CDR3-IL8 + E31D, Y32K
B6: IgG with VH4-34+CDR3-IL8_CDR1 Cow and BLV1H12 light chain (antibody)
VH: QVQLQQWGAGLLKPSETLSLTCTASGFSLSDKAVGWIRQPPGKGLEWIGEINHSGSTNYNPSLKSRVTISVDTSKNQFSLKLSSVTAADTAVYYCTSVHQETKKYQSPRSAKELRCQCIKTYSKPFHPKFIKELRVIESGPHCANTEIIVKLSDGRELCLDPKENWVQRVVEKFLKRAENSGSGSYTYNYEWHVDVWGQGLLVTVSSAS
VL: QAVLNQPSSVSGSLGQRVSITCSGSSSNVGNGYVSWYQLIPGSAPRTLIYGDTSRASGVPDRFSGSRSGNTATLTISSLQAEDEADYFCASAEDSSSNAVFGSGTTLTVLGQPKSPPSVTLFPPSTEELNGNKATLVCLISDFYPGSVTVVWKADGSTITRNVETTRASKQSNSKYAASSYLSLTSSDWKSKGSYSCEVTHEGSTVTKTVKPSECS
notes: IgG, human IgG1 CH1-CH2-CH3; also called VH4-34 + CDR3-IL8 + Cow CDR1

What was measured:
CXCR1 [1] = target: T1, CXCR1; experiment: flow cytometry, IgG-containing supernatant on CXCR1-U2OS cells, fluorescent anti-human Fc
Description: (§1) In an exemplary method, BLV1H12 IgG comprising a CDR3 with an IL-8 insert (e.g., the IL-8 sequence replaced a portion of the CDR3) was evaluated for binding to CXCR1 expressing cells by flow cytometry. Briefly, a cell line expressing functionally validated CXCR1 derived from U2OS cells was obtained from DiscoveRx and cultured per manufacturer's instructions (Cat#93-0226C3, DiscoveRx Corporation, Freemont, Calif.). The parental cell line U2OS was obtained from ATCC and cultured under the same conditions as the CXCR1 cells. Cell culture supernatants were then tested for binding to cells by flow cytometry. The adherent U2OS or CXCR1-U2OS cells were dissociated with Accutase (Innovative Cell Technologies, Inc., San Diego, Calif.), neutralized with an equal volume of media containing 10% serum, centrifuged at 1000 g, and resuspended in PBS with 2% BSA. Next, cells were dispensed into microtiter plates to achieve between 30,000 to 300,000 cells per well, centrifuged again, and resuspended in cell culture supernatant containing expressed IgG, or a dilution of IgG-containing cell culture supernatant. A fluorescent-conjugated anti-Human Fc antibody was used to detect binding of the expressed antibody to cells.
(§2) Additionally, the human germline CDR3-IL8 IgGs described in Example 5 were evaluated for binding to CXCR1 expressing cells by flow cytometry as described above. IgG binding to CXCR1-U2OS cells is indicated by higher fluorescence values, but non-specific binding to U2OS parental cells is also detectable.

CXCR1 [2] = target: T1, CXCR1; experiment: flow cytometry; fluorescence on CXCR1-U2OS cells over fluorescence on parental U2OS cells
Description: as §1, §2

CXCR1 [3] = target: T1, CXCR1; experiment: as above; remark: listed apart in the source
Description: as §1
In an exemplary method, certain residues in VH4-34 CDR1 and/or CDR2 were substituted with corresponding CDR1 and/or CDR2 residues from BLV1H12. Briefly, the pFuse vector encoding heavy chain VH4-34 CDR3-IL8 was modified by overlap PCR to replace all of CDR1 with sequence from BLV1H12 (VH4-34+CDR3-IL8_CDR1 Cow, SEQ ID NO: 432) or all of CDR2 with sequence from BLV1 H12 (VH4-34+CDR3-IL8_CDR2 Cow, SEQ ID NO: 433).

Row | Binder | median fluorescence on CXCR1-U2OS (CXCR1 [1]) [AFU] | Ratio of CXCR1/Parental (CXCR1 [2]) | FACS CXCR1/Parental Ratio (CXCR1 [3])
1 | B1 | 23 | 4.3 | 
2 | B2 | 6 | 1.1 | 
3 | B3 | 78 | 4 | 
4 | B4 | 3080 | 3.1 | 
5 | B5 |  |  | 8.1
6 | B6 |  |  | 2.1
